According to patent US20220411483A1 (Chugai, published 2022):
Substitutions are numbered along the chain they refer to.

B1: IL6R-P737/IL6R-L (antibody, human IgG1, kappa)
heavy: QVQLQESGPGLVKPSETLSLTCAVSGHSISHDHAWSWVRQPPGEGLEWIGFISYSGITNYNPSLQGRVTISRDNSKNTLYLQMNSLRAEDTAVYYCARSLARTTAMDYWGEGTLVTVSSASTKGPSVFPLAPSSKSTSGGTAALGCLVKDYFPEPVTVSWNSGALTSGVHTFPAVLQSSGLYSLSSVVTVPSSSLGTQTYICNVNHKPSNTKVDKKVEPKSCDKTHTCPPCPAPELLGQDSVMLFPPKPKDTLMISRTPEVTCVVVDVSPEDPEVKFNWYVDGVEVHNAKTKPREEQENSTYRVVSVLTVLHQDWLNGKEYKCKVHNKALPHPIEKTISKAKGQPREPQVYTLPPSRDELTKNQVSLTCLVKGFYPSDIAVEWESNGQPENNYKTTPPVLDSDGSFFLYSKLTVDKSRWQQGNVFSCSVMHEALHNHYTQKSLSLSP
light: not shown
B2: IL6R-BP488/IL6R-L (antibody, human IgG1, kappa, name in EU numbering)
heavy: QVQLQESGPGLVKPSETLSLTCAVSGHSISHDHAWSWVRQPPGEGLEWIGFISYSGITNYNPSLQGRVTISRDNSKNTLYLQMNSLRAEDTAVYYCARSLARTTAMDYWGEGTLVTVSSASTKGPSVFPLAPSSKSTSGGTAALGCLVKDYFPEPVTVSWNSGALTSGVHTFPAVLQSSGLYSLSSVVTVPSSSLGTQTYICNVNHKPSNTKVDKKVEPKSCDKTHTCPPCPAPDLLGDDSVFLFPPKPKDTLMISRTPEVTCVVIDVAEEDGEVKFNWYVDGVEVHNAKTKPREEQDNSTYRVVSVLTVLHQDWLNGKEYKCKVSNKALPRPIEKTISKAKGQPREPQVYTLPPSRDELTKNQVSLTCLVKGFYPSDIAVEWESNGQPENNYKTTPPVLDSDGSFFLYSKLTVDKSRWQQGNVFSCSVMHEALHNHYTQESLSLSP
light: not shown
notes: human IgG1
B3: IL6R-BP539/IL6R-L (antibody, human IgG1, kappa, name in EU numbering)
heavy: B2 heavy with D235E, A269G, E274P
light: not shown
notes: human IgG1
B4: IL6R-BP536/IL6R-L (antibody, human IgG1, kappa, name in EU numbering)
heavy: B2 heavy with A269S, A329G, P398M
light: not shown
notes: human IgG1
B5: IL6R-BP499/IL6R-L (antibody, human IgG1, kappa, name in EU numbering)
heavy: B2 heavy with P398L
light: not shown
notes: human IgG1
B6: IL6R-BP497/IL6R-L (antibody, human IgG1, kappa, name in EU numbering)
heavy: B2 heavy with D298Y, A329G
light: not shown
notes: human IgG1
B7: IL6R-BP538/IL6R-L (antibody, human IgG1, kappa, name in EU numbering)
heavy: B2 heavy with D235E, A269S, D298Y
light: not shown
notes: human IgG1
B8: IL6R-BP502/IL6R-L (antibody, human IgG1, kappa, name in EU numbering)
heavy: B2 heavy with A329G
light: not shown
notes: human IgG1
B9: IL6R-BP496/IL6R-L (antibody, human IgG1, kappa, name in EU numbering)
heavy: B2 heavy with R332A
light: not shown
notes: human IgG1
B10: IL6R-BP503/IL6R-L (antibody, human IgG1, kappa, name in EU numbering)
heavy: B2 heavy with A329G, P398M
light: not shown
notes: human IgG1
B11: IL6R-BP498/IL6R-L (antibody, human IgG1, kappa, name in EU numbering)
heavy: B2 heavy with D298Y, P398L
light: not shown
notes: human IgG1
B12: IL6R-BP540/IL6R-L (antibody, human IgG1, kappa, name in EU numbering)
heavy: B2 heavy with D235E, A269S, E274P
light: not shown
notes: human IgG1
B13: IL6R-BP533/IL6R-L (antibody, human IgG1, kappa, name in EU numbering)
heavy: B2 heavy with A269G, P398L
light: not shown
notes: human IgG1
B14: IL6R-BP511/IL6R-L (antibody, human IgG1, kappa, name in EU numbering)
heavy: B2 heavy with D235E, E274P
light: not shown
notes: human IgG1
B15: IL6R-BP550/IL6R-L (antibody, human IgG1, kappa, name in EU numbering)
heavy: B2 heavy with D235E, A269G, E274D
light: not shown
notes: human IgG1
B16: IL6R-BP491/IL6R-L (antibody, human IgG1, kappa, name in EU numbering)
heavy: B2 heavy with D235E
light: not shown
notes: human IgG1
B17: IL6R-BP510/IL6R-L (antibody, human IgG1, kappa, name in EU numbering)
heavy: B2 heavy with D235E, E274P, D298Y
light: not shown
notes: human IgG1
B18: IL6R-BP487/IL6R-L (antibody, human IgG1, kappa, name in EU numbering)
heavy: B2 heavy with D298Y, P398M
light: not shown
notes: human IgG1
B19: IL6R-BP554/IL6R-L (antibody, human IgG1, kappa, name in EU numbering)
heavy: B2 heavy with D235E, E274D, D298Y
light: not shown
notes: human IgG1
B20: IL6R-BP489/IL6R-L (antibody, human IgG1, kappa, name in EU numbering)
heavy: B2 heavy with P398M
light: not shown
notes: human IgG1
B21: IL6R-BP438/IL6R-L (antibody, human IgG1, kappa, name in EU numbering)
heavy: B2 heavy with I266V, D298Y, I334T
light: not shown
notes: human IgG1
B22: IL6R-BP558/IL6R-L (antibody, human IgG1, kappa, name in EU numbering)
heavy: B2 heavy with D235E, A269G, E274D, D298Y
light: not shown
notes: human IgG1

Target: T1, FcγRIa extracellular domain, His tag (human, UniProt P12314 16-292)
T1 construct: whole entry named; also called FcgRIa
Assay: SPR, KD ratio

T1 sequence (P12314 16-292): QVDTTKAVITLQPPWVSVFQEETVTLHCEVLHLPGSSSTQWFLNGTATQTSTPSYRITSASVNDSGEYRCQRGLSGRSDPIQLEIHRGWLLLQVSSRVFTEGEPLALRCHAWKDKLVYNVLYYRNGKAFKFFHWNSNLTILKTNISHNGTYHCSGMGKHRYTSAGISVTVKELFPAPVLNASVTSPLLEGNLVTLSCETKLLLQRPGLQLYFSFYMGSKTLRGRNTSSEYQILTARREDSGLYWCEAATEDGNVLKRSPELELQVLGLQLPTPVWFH

| Binder | Relative FcgRIa-binding Activity |
| --- | --- |
| B1 | 0.002 fold of IL6R-G1d/IL6R-L |

Target: T2, FcγRIIa R type extracellular domain, His tag (human, UniProt P12318 34-217)
T2 construct: extracellular domain; also called FcgRIIaR
T2 sequence (looked up): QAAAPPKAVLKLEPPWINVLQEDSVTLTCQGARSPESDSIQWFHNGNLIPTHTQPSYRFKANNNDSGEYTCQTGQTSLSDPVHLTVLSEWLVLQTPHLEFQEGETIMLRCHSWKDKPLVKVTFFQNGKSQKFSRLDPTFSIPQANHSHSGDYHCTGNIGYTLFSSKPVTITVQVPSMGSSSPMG
Assay: SPR, KD ratio

| Binder | Relative FcgRIIaR-binding Activity |
| --- | --- |
| B1 | 0.011 fold of IL6R-G1d/IL6R-L |

Target: T3, FcγRIIa H type extracellular domain, His tag (human, UniProt P12318 34-217)
T3 construct: extracellular domain; also called FcgRIIaH
T3 sequence (looked up): T2 sequence (looked up) with R134H
Assay: SPR, KD ratio

| Binder | Relative FcgRIIaH-binding Activity |
| --- | --- |
| B1 | 0.006 fold of IL6R-G1d/IL6R-L |

Target: T4, FcγRIIb extracellular domain, His tag (human, UniProt P31994 43-217)
T4 construct: extracellular domain; also called FcgRIIb
T4 sequence (looked up): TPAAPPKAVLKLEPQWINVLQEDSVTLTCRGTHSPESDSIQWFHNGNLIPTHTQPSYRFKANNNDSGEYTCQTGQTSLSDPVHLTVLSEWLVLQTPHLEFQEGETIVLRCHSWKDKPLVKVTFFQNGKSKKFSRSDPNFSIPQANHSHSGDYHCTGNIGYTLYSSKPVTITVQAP
Assay: SPR, KD ratio

| Binder | Relative FcgRIIb-binding Activity |
| --- | --- |
| B1 | 0.802 fold of IL6R-G1d/IL6R-L |

Target: T5, FcγRIIIa V type extracellular domain, His tag (human, UniProt P08637 17-208)
T5 construct: extracellular domain; also called FcgRIIIaV
Assay: SPR, KD ratio

T5 sequence (P08637 17-208 F176V): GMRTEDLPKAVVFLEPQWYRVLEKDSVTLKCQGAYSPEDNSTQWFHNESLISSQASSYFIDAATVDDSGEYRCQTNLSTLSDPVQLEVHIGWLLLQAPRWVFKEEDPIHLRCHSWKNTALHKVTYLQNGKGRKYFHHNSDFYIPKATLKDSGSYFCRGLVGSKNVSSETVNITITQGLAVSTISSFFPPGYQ

| Binder | Relative FcgRIIIaV-binding Activity |
| --- | --- |
| B1 | 0.005 fold of IL6R-G1d/IL6R-L |

Target: T6, FcγRIa extracellular domain with C-terminal His tag (human, UniProt P12314 16-292)
T6 construct: also called FcgRIa; CD64; not shown: His tag at the C terminus
Assay: SPR, antibody captured, FcgR analyte

T6 sequence (P12314 16-292): as the sequence (P12314 16-292) above

| Binder | Kd [nM] |
| --- | --- |
| B2 | 2.2 |
| B3 | 64 |
| B4 | 8.9 |
| B5 | 1.2 |
| B6 | 2.1 |
| B7 | 55 |
| B8 | 2.1 |
| B9 | 1.2 |
| B10 | 1.2 |
| B11 | 1.3 |
| B12 | 96 |
| B13 | 7.7 |
| B14 | 6 |
| B15 | 25 |
| B16 | 5.3 |
| B17 | 6 |
| B18 | 1.2 |
| B19 | 8 |
| B20 | 1.3 |

Target: T7, FcγRIIa R type extracellular domain with C-terminal His tag (human, UniProt P12318 34-217)
T7 construct: extracellular domain; also called FcgRIIaR; not shown: His tag at the C terminus
T7 sequence (looked up): T2 sequence (looked up)
Assay: SPR, antibody captured, FcgR analyte

| Binder | Kd [nM] |
| --- | --- |
| B2 | 74 |
| B3 | 330 |
| B4 | 79 |
| B5 | 49 |
| B21 | 180 |
| B6 | 85 |
| B7 | 200 |
| B8 | 110 |
| B9 | 470 |
| B22 | 330 |
| B10 | 57 |
| B11 | 51 |
| B12 | 210 |
| B13 | 120 |
| B14 | 180 |
| B15 | 340 |
| B16 | 120 |
| B18 | 39 |
| B20 | 43 |

Target: T8, FcγRIIa H type extracellular domain with C-terminal His tag (human, UniProt P12318 34-217)
T8 construct: extracellular domain; also called FcgRIIaH; not shown: His tag at the C terminus
T8 sequence (looked up): T2 sequence (looked up) with R134H
Assay: SPR, antibody captured, FcgR analyte

| Binder | Kd [nM] |
| --- | --- |
| B2 | 1600 |
| B3 | 5600 |
| B4 | 1300 |
| B5 | 1000 |
| B21 | 1600 |
| B6 | 960 |
| B7 | 3000 |
| B8 | 1300 |
| B9 | 3700 |
| B22 | 4900 |
| B10 | 860 |
| B11 | 930 |
| B12 | 4600 |
| B13 | 2600 |
| B14 | 4300 |
| B15 | 5000 |
| B16 | 2200 |
| B17 | 4000 |
| B18 | 840 |
| B19 | 2300 |
| B20 | 870 |

Target: T9, FcγRIIb extracellular domain with C-terminal His tag (human, UniProt P31994 43-217)
T9 construct: extracellular domain; also called FcgRIIb; not shown: His tag at the C terminus
T9 sequence (looked up): T4 sequence (looked up)
Assay: SPR, antibody captured, FcgR analyte

| Binder | Kd [nM] |
| --- | --- |
| B2 | 1.9 |
| B3 | 8.4 |
| B4 | 3 |
| B5 | 1.5 |
| B6 | 4.1 |
| B7 | 5.3 |
| B8 | 3.7 |
| B9 | 18 |
| B22 | 9 |
| B10 | 1.7 |
| B11 | 1.7 |
| B12 | 5.7 |
| B13 | 4.1 |
| B14 | 3.5 |
| B15 | 7.6 |
| B16 | 3 |
| B17 | 3.8 |
| B18 | 1.2 |
| B20 | 1 |

Target: T2, FcγRIIa R type extracellular domain, …
Assay: SPR, bound amount per captured antibody

| Binder | Relative FcgRIIaR-binding Activity |
| --- | --- |
| B1 | 7.2 % of IL6R-G1d/IL6R-L |

Target: T4, FcγRIIb extracellular domain, His tag
Assay: SPR, bound amount per captured antibody

| Binder | Relative FcgRIIb-binding Activity |
| --- | --- |
| B1 | 99.5 % of IL6R-G1d/IL6R-L |

Target: T7, FcγRIIa R type extracellular domain …
Assay: SPR; KD of IL6R-B3/IL6R-L divided by KD of variant

| Binder | Relative FcgRIIaR-binding Activity |
| --- | --- |
| B2 | 14.6 |
| B3 | 3.3 |
| B4 | 13.7 |
| B5 | 21.9 |
| B6 | 12.6 |
| B7 | 5.3 |
| B8 | 9.9 |
| B9 | 2.3 |
| B10 | 19 |
| B11 | 21.3 |
| B12 | 5.1 |
| B13 | 9 |
| B14 | 6.1 |
| B15 | 3.2 |
| B16 | 9.2 |
| B18 | 27.8 |
| B20 | 25.2 |

Target: T9, FcγRIIb extracellular domain with …
Assay: SPR; KD of IL6R-B3/IL6R-L divided by KD of variant

| Binder | Relative FcgRIIb-binding Activity |
| --- | --- |
| B2 | 1670 |
| B3 | 368 |
| B4 | 1040 |
| B5 | 2120 |
| B6 | 761 |
| B7 | 585 |
| B8 | 837 |
| B9 | 168 |
| B10 | 1810 |
| B11 | 1870 |
| B12 | 539 |
| B13 | 754 |
| B14 | 888 |
| B15 | 405 |
| B16 | 1020 |
| B18 | 2690 |
| B20 | 3090 |
